Target: T1, 6his-GSU1771 (Geobacter sulfurreducens (DL1 wild-type background)) (UniProt Q74CA3)
T1 sequence: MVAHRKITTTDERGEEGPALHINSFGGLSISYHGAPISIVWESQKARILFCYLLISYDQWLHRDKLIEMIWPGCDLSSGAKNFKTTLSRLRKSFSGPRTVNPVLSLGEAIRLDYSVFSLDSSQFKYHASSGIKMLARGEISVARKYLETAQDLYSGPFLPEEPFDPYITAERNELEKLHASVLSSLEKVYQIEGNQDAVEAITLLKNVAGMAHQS
Test: EMSA
Settings: 40 mM HEPES, 8 mM MgCl2, 50 mM KCl, 1 mM DTT, 0.05% NP-40, 0.1 mg/ml BSA, 20 ul, 30 C 30 min, pH not stated; 100 ng of each fragment; 6% native PAGE in 0.5X …

Sequence	binding
AGGCTTGCTCGTCTCATGTCGCGCCGCCGTGGGAAAAAGTAGTAACCAGTAGTATATCATTTCGTCACCGTGGTTTCATTGCTTGAGCTTTTTTGCATCCGAAGCGACTCCAGCCTGTGCCCTCCGGCAATAAACCGCTTTTCCCCCGCCGGTGATGGTGGTACTCTCCTCCCATTTCGCGGAGGATGGAGTGCATGGAT (double strand) [gsu3356 promoter]	binds
GTGGTATTCATGCACGTATTCTAATGACGGCCCGCAACCCAGGTGGAGCCGTCATCCTTTTTTTCGGATATACTGCCTGGATTCACGACTGAACCGGGACGGAAGGCAATAGCCGCACCGACGAGGATAGGATGAGCTTTCCCTTC (double strand) [gsu1704-gsu1705 intergenic region]	no binding
CGCTGGATCTCCTGAAAGGGTGGGAAATCCTGAAAACAATAAGCAAATGAGAGGATGACTTACGCCAAAAGGGGGGGCTCGGGCCCCCCCTTTTTTTATGTAAATCCGATAAGTTCTATATTTGTATTGACACTCCCGTAACGATGTAGTATTCAGTAGGTAAATTAATCACAGTTAAGGTAAGGGTGTATCGCG (double strand) [gsu1771 promoter]	binds
ACCATCTTCGCATCCCTGTGGAGGATCTCTGCTTTTCCTGCCACGACCGATAGCAGTGACTATTGTGTTGTGGTGGGTGTGTTGTGATGGTGTTGCGGTCATGTTTCTGCTTGTTTTTATTTTTAATTTTACCCATTTTGTGCTAAGAAAATCTAATGGCCCTATACCACTGTAAGCTCGGCTCCTCGGAG (double strand) [pulF promoter]	binds
